Earlier results, collected in patent US20020168685A1, “Covalent chemical inducers of protein dimerization and their uses in high throughput binding screens” (priority 2001, published 2002).

Details: substrate nitrocefin

B1: E. cloacae P99 wt: wild-type E. cloacae P99 cephase (protein, UniProt P05364 21-381, looked up)
Beta-lactamase: TPVSEKQLAEVVANTITPLMKAQSVPGMAVAVIYQGKPHYYTFGKADIAANKPVTPQTLFELGSISKTFTGVLGGDAIARGEISLDDAVTRYWPQLTGKQWQGIRMLDLATYTAGGLPLQVPDEVTDNASLLRFYQNWQPQWKPGTTRLYANASIGLFGALAVKPSGMPYEQAMTTRVLKPLKLDHTWINVPKAEEAHYAWGYRDGKAVRVSPGMLDAQAYGVKTNVQDMANWVMANMAPENVADASLKQGIALAQSRYWRIGSMYQGLGWEMLNWPVEANTVVEGSDSKVALAPLPVAEVNPPAPPVKASWVHKTGSTGGFGSYVAFIPEKQIGIVMLANTSYPNPARVEAAYHILEALQ
  % WT (percentage of wild-type kcat/Km as calculated in that experiment): 100%
  Km: 25 ± 1 µM
  kcat: 780 ± 30 s⁻¹
